Test system: MS2 coat protein
Assay: apparent KD of MS2 coat protein; higher = weaker reporter binding
Details: Eterna round: R107
How it was run: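 Designed RNA switches, transcribed on-chip from Illumina sequencing clusters, were titrated with SNAP-549-labelled MS2 coat protein from 0.7 or 1.5 nM to 3 µM in twofold steps. The solution was 100 mM Tris-HCl pH 7.5, 80 mM KCl, 4 mM MgCl2, with constant ligand or without it. Apparent KD is the median over each design's normalised cluster binding-curve fits.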

[1] = input ligand: theophylline 20 uM
[2] = input ligand: theophylline 2 mM
[3] = input ligand: tryptophan 2.4 mM

Sequence	apparent KD of MS2 coat protein (input ligand: arginine 13.2 mM) [nM]	apparent KD of MS2 coat protein (input ligand: none) [nM]	apparent KD of MS2 coat protein [1] [nM]	apparent KD of MS2 coat protein [2] [nM]	apparent KD of MS2 coat protein [3] [nM]
AAUAAUAAGGCGGCCGCCACUAAACAUGAGGAUCACCCAUGUCUCGAGCGCUUGCAUUUGGGAAGUAGGACCGGGCCAAUAAUAA [Exclusion - Tryptophan B (Freestyle 4)]	14.5	21.4	28.8	22.6	19.4
CCUUAAUAUAGAAGGAGCGCGCUAACAUGAGGAUCACCCAUGUAAAGGGUUUUUGGCUUAGCGCAGGUAGGUCGCUAUAAGAACC [Arg B Ex t1]	74	128	162	131	134
AAUUGGGUUGGUGAGGUGGUUGGAGGCGAUACCAGCGUGGAAACACGCCCUUGGCAGCGCCAGGACAUGAGGAUCACCCAUGUUC [Ostrava]	19.6	–	36	–	22.1
ACGAACGCACCUGAGGAUCACCCAGGUGAUACCAGCCUGGAAACAGGCCCUUGGCAGCACCUAAAAUAAAGGUAACGUUCGAAUA [TheoAX7 #MicroSwitchBubble #AlternativeMS2]	41.1	74.2	165	173	61.9
GGUCUCUGGAGCGAUACCAGCUUAAAUGUACUGGCCAGGUACAUGAGGAUCACCCAUGUAAGCCCUUGGCAGCGCUCCAGAGACC [#1 Exclusion - Theophylline B Attempt #13 (HarryS)]	12.3	13.9	13.8	39.2	13.5
GUCUGUGACUGAAGGAGCGACAUGAGGAUCACCCAUGUCUCCCGUUAUGGGAGUUCCUUAGGUCAGGUAGGUCGCAGUCACAGAC [#1 Exclusion - Arginine B Attempt #28 (Inspired by Omei)]	71.4	112	137	152	103
CCCAAGCCAGCUGAUACCAGUGACGUGGUCAGAAUGUGCGACAUGAGGAUCACCCAUGUACACCCUUGGCAGCAGUAGAACGGUU [theeternabot_exclusion_MS2_Theo_B_47]	13.6	–	18.9	–	14.9
AACCGAGGCUAUCCUCUCCGCCUAUGUGAUACCAGAAUAAUUUUAUUCCCUUGGCAGCAUGACAUGAGGAUCACCCAUGUCUCUU [SSTheo A #11]	15.2	–	19.4	–	17.3
AUACAUGAGGAUCACCCAUGUUAUAGUGAAGGAGCGACAUUUAGGUCAGGUAGGUCGCACUAUUGAAUUAUUAUCCUCUUUUCUU [JR_ExcArginiA_Sub021]	23.1	21.3	31.2	23.7	24.7
GUAUAGUCUCGAAGGAGCGUCACAUGAGGAUCACCCAUGUACAUGAGGAUCACCCAUGUGUGGCAGGUAGGUCGCGAGCUAUACC [Exclusion Arginine B GF8]	136	265	228	281	312
AUUCCAUAGGUGCAGUUGUUAAAUGGCGAUACCAGCGUGGAAACACGCCCUUGGCAGCGCCAAAACAUGAGGAUCACCCAUGUUA [Kladno]	48.3	–	111	–	94.8
AAUAACAUGAGGAUCACCCAUGUAAAAGAUACCAGAUGCAUGAUGAUCCCUUGGCAGCUUAAACGCGAUUGAUUACAAUCGCGAA [Mat - Same State Theophlline A - Mod of Eli - D10]	40.9	–	71.9	–	21.2
ACACAUGAGGAUCACCCAUGUGCGCUGGAAGGAGCGCAGAAUCAUGCAGGUAGGUCGCCAGUGCCCUUCGAUAAAGGGAAAAGAG [Erbienes]	42.4	97.4	72	106	69.1
UGUCAGCGAAAGUUGACAUGUCUUACCGGUCGAGGACCGGUACGGCCGCCACUCGAUCUCUCGCACAUGAGGAUCACCCAUGUCG [SS Tryp A #17]	12.8	–	15.4	12.8	–
GCUGUUGCGGUGAGGUAUCCGGCUGUGGAAGGAGCGCGGAAGGCCGCAGGUAGGUCGCCACAUGAGGAUCACCCAUGUCGAUAUA [Aninati]	48.7	16.9	80.6	28.3	16.8
CUCUUCCGGAAGGAUACCAGCUACAUGAGGAUCACCCAUGUAGGAGCGGGUUUCUAAUGUAGCCCUUGGCAGCCUUAGCCCGUCG [Querarra]	15.9	–	36.5	–	18
AAAAUCCUACCUGAGGAUCACCCGGGUGAAGGAGCGCCCGAAAGGGCAGGUAGGUCGCACCUGAGGAUCACCCUGGUAAACCUAA [ArgEX 23 #DoubleMS2 #OpenEnded]	103	172	183	234	154
UGGGUAGCAUAGAUUGAUAGUUAAACUGAAGGAGCGAGAAUAAUCUCAGGUAGGUCGCAGACAUGAGGAUCACCCAUGUAGAUGG [Same State Arginine A GF16]	47	122	129	88.8	68

Sequence	apparent KD of MS2 coat protein (input ligand: arginine 13.2 mM) [nM]	apparent KD of MS2 coat protein (input ligand: none) [nM]	apparent KD of MS2 coat protein [1] [nM]	apparent KD of MS2 coat protein [2] [nM]	apparent KD of MS2 coat protein [3] [nM]
CCAUAUGUAACUGAUACCAGUGUACUGACAUGAGGAUCACCCAUGUUGGGUUUUGUUGUACACCCUUGGCAGCAGAAUCAUAUGG [AstrosExyTheB#17]	48.3	–	73.6	–	53.9
ACAUGAGGAUCACCCAUGUAAUGGCACGAUACCAGCUGAUCCCGUGGCCCUUGGCAGCGUCCGGUGUGGUCCGCCGGGUUGGACC [HHHMULLIN]	59	26	49.1	31.1	36.2
AAACAUUGCUGCGAUACCAGACAUGAGGAUCACCCAUGUACCAAGAAAACGUACAUAAAUGUCCCUUGGCAGCGCAGCAAUGAAA [MAT - Exclusion Theophlline B - Mod of Eli - D27]	216	–	514	–	651
GAUGAUAUUGCAGAUACCAGACACAUGAGGAUCACCCAUGUCUCUGAGAUGAAGGAUCGUGUCCCUUGGCAGCUGCGAUAUCAUC [Bulgaria]	25.1	–	72.9	–	30.3
ACAUGAGGAUCACCCAUGUUCCUCAUUGAUACCAGUGAAUUUAGACGCCCUUGGCAGCGAGUUUUUUUAUAAGAUGUUUUUUUUU [6.H]	244	–	829	–	1040
GUCCUAGCGAGCGCUCGCUAGGACGCGGAUACCAGCGAGGUCCAUCGCCCUUGGCAGCCGAACAUGAGGAUCACCCAUGUCGGUA [#1 Same State - Theophylline A Attempt #16 (HarryS)]	8.3	11.6	13.2	13.4	9.97
AUGUAGAACCGAAGGAGCGCGAUAACAUGAGGAUCACCCAUGUAGCUUUGGUGGCCUCGAUCGCAGGUAGGUCGCGGAAGUAGUA [Exclusion - Arginine B / A]	40.8	102	213	231	155
AUACAUGAGGAUCACCCAUGUAUAGUUGAAGGAGCGACCAGAGGGUCAGGUAGGUCGCAACACAUGAGGAUCACCCAUGUAUCGA [DOUBLE!!! :-D #7]	30	49.9	52.9	47.5	34.6
CAAUCUACCACCGGCCUACUGUACACUCGCCGAGGACCGGUACGGCCGCCACUCGACGUUCGACAUGAGGAUCACCCAUGUGGGU [theeternabot_exclusion_MS2_Trp_A_14]	80.1	–	200	289	–
GUUGGACUUUCGGCCGCCACUGAGAGAGUCAUGUGAACAUGAGGAUCACCCAUGUAAUAUAUAUACAGGACCGGGAGGGUUGUAA [4.M]	11.7	–	22	13.9	–
GCGGUGGGUCAAAAGUAAUAGAAUUCUGAAGGAGCGUGAUGAAACACAGGUAGGUCGCAGGAACAUGAGGAUCACCCAUGUACGG [Same State Arginine A GF21]	34.4	34	49	37.5	35.7
UCGACAGUGAACGAUACCAGCGUCACGUGGCCGGUGGUCACAUGAGGAUCACCCAUGUAACGCCCUUGGCAGCGUGCACGUAUCC [Berisoor]	17.5	–	78	–	25.5
CUAUAAUAUAGAAGGAGCGUCGAAAAUGGGUAAACAUGAGGAUCACCCAUGUAAAGGGAACGACAGGUAGGUCGCUAUAUUAUAG [AstromonsSSArgB#12]	181	228	237	305	223
ACAUGAGGAUCACCCAUGUAUUACCGGGAAGGAGCGGCCGGAAGGCCAGGUAGGUCGCUCGGCGUCGUGCUGUAAAGCACGACGA [#1 Same State - Arginine A Attempt #27 (HarryS)]	8.95	14	18.4	12.2	11.6
AUACAUGAGGAUCACCCAUGUGAUGGCCGGCGAGGACCGGUACGGCCGCCACUCGUGAUCCGUCCCGAGAGCAAAGCUCUCGACA [Raatala]	4.9	53.7	436	1080	50.3
GGUUGGUGUGGAGACAUAUUGAUCACUGAAGGAGCGGGAAUAAACCCAGGUAGGUCGCAGAGAUCCACAUGAGGAUCACCCAUGU [!0.Q]	80.8	40.2	68.9	86.6	36.2
AGUUGCGUUGGAAGGAGCGGCAUGUGUGGGCCUCCUUACAAUACAUGAGGAUCACCCAUGUGCCAGGUAGGUCGCCAACACAGGU [Tiedmaqu]	47.9	40.2	79.8	96	54.8
AUGUCGUUGAAUACAGCGGCAUGGUGUGAUACCAGAAUGAUCAAAUUCCCUUGGCAGCAUCACAUGAGGAUCACCCAUGUUAAGG [SSTheo A #17]	27.5	–	50	–	46.4

Reference: the supplement of paper PMC9170038
